Results as given in patent US20010052137A1, “Axin domain-like polypeptide inhibitors of glycogen synthase kinase 3 beta activity and activators of wnt signaling” (Trustees of the University of Pennsylvania, priority 2000, published 2001).

B1: GID-2/his: His-tagged fusion protein of Xaxin residues 320-429, expressed in E. coli and purified on nickel agarose (protein)
chain: DSEQQSMSSDADTMSLTDSSVDGIPPYRLRKHYRREMQESANANGRGPLPHIPRTYHMPKDIHVDPEKFAAELISRLEGVLRDREAEQKLEERLKRVRAEEEGDDGDVSS
modifications: left off: small tags and cut ends
notes: His-tagged fusion protein of Xaxin residues 320-429, expressed in E. coli and purified on nickel agarose
B2: carboxyl-terminal fragment: Myc-tagged fragment, amino acid residues 429-713 of Xaxin (protein)
chain: SGPSVISHKLPSGPPMHHFNSRYSETGCVGMQIRDAHEENPESILDEHVQRVMKTPGCQSPGTGRHSPKSRSPDGHLSKTLPGSLGTMQTGHGKHSSKSTAKVDSGNLHHHKHVYHHVHHHGGVKPKEQIDGESTQRVQTNFPWNVESHNYATKSRNYAESMGMAPNPMDSLAYSGKVSMLSKRNAKKADLGKSESASHEMPVVPEDSERHQKILQWIMEGEKEIIRHKKSNHSSSSAKKQPPTELARPLSIERPGAVHPWVSAQLRNVVQPSHPFIQDPTMPPN
modifications: left off: small tags and cut ends
notes: Myc-tagged fragment, amino acid residues 429-713 of Xaxin
B3: amino-terminal fragment: Myc-tagged fragment, amino acid residues 63-288 of Xaxin (protein)
chain: RPDLDLGYEPEGSASPTPPYLKWAESLHSLLDDQDGIHLFRTFLQQENCADLLDFWFACSGFRKLEPNDSKVEKRLKLAKAIYKKYVLDSNGIVSRQIKPATKSFIKDCVLRQQIDPAMFDQAQMEIQSMMEDNTYPVFLKSDIYLEYTTIGGESPKNYSDQSSGSGTGKGPSGYLPTLNEDEEWRCDQGGEHERERECIPSSLFSQKLALDSSSHCAGSNRRLSD
modifications: left off: small tags and cut ends
notes: Myc-tagged fragment, amino acid residues 63-288 of Xaxin
B4: AID: fragment of amino acid residues 489-777 of Xaxin, axin self-interaction domain (protein)
chain: PGTGRHSPKSRSPDGHLSKTLPGSLGTMQTGHGKHSSKSTAKVDSGNLHHHKHVYHHVHHHGGVKPKEQIDGESTQRVQTNFPWNVESHNYATKSRNYAESMGMAPNPMDSLAYSGKVSMLSKRNAKKADLGKSESASHEMPVVPEDSERHQKILQWIMEGEKEIIRHKKSNHSSSSAKKQPPTELARPLSIERPGAVHPWVSAQLRNVVQPSHPFIQDPTMPPNPAPNPLTQLVSKPGARLEEEEKKAAKMPQKQRLKPQKKNVSAPSQPCDNIVVAYYFCGEPIPYR
modifications: left off: large carriers

How the values were obtained:
GSK-3 beta [1] = test: In vitro binding of GSK-3 beta to GID-2/his on nickel agarose; settings: 25 nanomolar GSK-3 beta
Protocol: A cDNA (GID-2) encoding amino acid residues 320-429 of Xaxin was cloned into pET29b (Novagen, Madison, Wis.) in frame with the His-epitope tag. The resulting encoded GID-2/his fusion protein was expressed in BL2I/DE3 cells and purified on nickel agarose according to standard procedures. Purified GID-2/his was added to a reaction cocktail having a final volume of 20 microliters and containing 25 nanomolar recombinantly-generated GSK-3 beta in GSK-3 assay buffer, as described (Klein et al., 1996, Proc. Natl. Acad. Sci. USA 93:8455-8459). This reaction mixture was incubated at 0° C. for one hour. After this incubation period, half of the mixture was assayed for GSK-3 beta activity, and the other half was incubated with nickel-agarose at 4° C. for one hour with rotation. The agarose was washed three times using PBS, and then Laemmli sample buffer was added. The samples were boiled for five minutes and then subjected to immunoblotting using anti-GSK-3 beta antibody.
(§1) GSK-3 beta (25 nanomolar) was incubated with GID-2/his (up to 200-fold molar excess), and each mixture was assayed to detect either protein kinase activity or, in parallel, protein-protein interaction. Interaction between GSK-3 beta and GID-2/his was detected by purification on nickel agarose followed by immunoblotting with GSK-3 beta-specific antibodies. […]

GSK-3 beta [2] = test: In vitro GSK-3 beta activity assay with purified GID-2/his; assay type: biochemical
Protocol: (§2) In ovo phosphorylation of tau by GSK-3 beta was performed by microinjection of tau protein into oocytes expressing GSK-3 beta and Xaxin constructs. After 90 minutes, oocytes were homogenized and tau phosphorylation was analyzed in western blots using phospho-specific antibodies as described (Hedgepeth et al., 1997, Develop. Biol. 185:82-91). In vitro assays for GSK-3 beta activity were performed as described (Klein et al., 1996, Proc. Natl. Acad. Sci. USA 93:8455-8459). Recombinant GID-2/his protein (described below) was purified by affinity chromatography and added to in vitro assays at selected concentrations.
A cDNA (GID-2) encoding amino acid residues 320-429 of Xaxin was cloned into pET29b (Novagen, Madison, Wis.) in frame with the His-epitope tag. The resulting encoded GID-2/his fusion protein was expressed in BL2I/DE3 cells and purified on nickel agarose according to standard procedures. […]
as §1

beta-catenin = beta-catenin protein accumulation in Xenopus oocytes (immunoblot); assay type: cell-based; settings: construct mRNA expressed in Xenopus oocytes
Protocol: FIG. 2A is an image of an immunoblot of Xenopus cytoplasmic extracts obtained from Xenopus embryos in which beta-catenin was expressed, using an antibody which binds specifically with beta-catenin (described in McCrea et al., 1993, J. Cell. Biol. 123:477-84). The embryo corresponding to lane 2 was incubated in the presence of 20 millimolar LiCI. Extracts corresponding to lanes 3-5, 7, and 8 were obtained from embryos in which full-length (lane 8) Xaxin or the C-term (lane 3), GID1 (“GID”; lanes 4 and 7), or N-term (lane 5) fragments of Xaxin were expressed.
Although endogenous GSK-3 beta is not present at sufficient levels to detect using the tau assay, inhibition of GSK-3 beta is known to cause stabilization of cytoplasmic beta-catenin (Cadigan et al., 1997, Genes Dev. 11:3286-3305; Miller et al., 1996, Genes Develop. 10:2527-2539), and this serves as a widely used assay for downstream activation of wnt signaling. Inhibition of endogenous GSK-3 beta activity also causes stabilization of beta-catenin in Xenopus embryos and oocytes (Hedgepeth et al., 1997, Develop. Biol. 185:82-91; Yost et al., 1998, Cell 93:1031-1041; Yost et al., 1996, Genes Develop. 10:1443-1454). For this reason, levels of beta-catenin protein were assessed in Xenopus oocytes which had been injected either with full length Xaxin mRNA or with mRNA encoding one of the amino-terminal, GID, or carboxyl-terminal domains of Xaxin.

GSK-3 beta [3] = test: In ovo tau phosphorylation assay: GSK-3 beta and Xaxin constructs co-expressed in Xenopus oocytes; assay type: cell-based; settings: construct co-expressed with GSK-3 beta in Xenopus oocytes; tau microinjected; PHF-1 immunoblot
Protocol: Stage VI Xenopus oocytes were isolated by collagenase treatment (Smith et al., 1994, Meth. Cell Biol. 36:45-58) and were injected with mRNA prepared by in vitro transcription (mMessage Machine™; Ambion, Austin, Tex.). 10 nanoliters of mRNA (containing 1-2 nanograms per nanoliter) was injected for each construct (unless otherwise specified), and the injected oocytes were incubated for 16 hours at 18° C. To analyze the effects of Xaxin constructs on dorsal-ventral pattern formation, Xenopus embryos were injected with 10 nanoliters of mRNA (0.1-0.2 nanogram per nanoliter) into one dorsal or ventral cell of a 4 cell embryo and dorsal axes were assessed at the tadpole stage. For Xaxin co-immunoprecipitation, fertilized eggs were injected with 10 nanoliters of Xaxin tagged with Myc, with hemagglutinin, or with both Myc and hemagglutinin (1 nanogram per nanoliter) and harvested at the blastula stage (stage 8).
as §2
In the experiments presented in this example, a tau phosphorylation assay (described in Hedgepeth et al., 1997, Develop. Biol. 185:82-91) was used to examine the activity of GSK-3 beta in Xenopus oocytes in the presence of full length axin and axin deletion mutants. […] Furthermore, GSK-3 beta-dependent tau phosphorylation occurs in oocytes at the same sites (tau serine residues 396 and 404) that are phosphorylated by GSK-3 beta in vitro and occurs with similarly rapid kinetics.
GSK-3 beta was expressed in oocytes together with Myc-tagged full length Xaxin or with the amino-terminal (amino acid residues 63-288), GID-1 (amino acid residues 277-545), or carboxyl-terminal (amino acid residues 429-713) fragments of Xaxin, as depicted in FIG. 1A. Purified tau protein was then microinjected into the oocytes, and phosphorylation of tau was measured by immunoblotting using antibody PHF-1 or with antibodies that detect all (i.e. phosphorylated and non-phosphorylated) forms of tau.
In order to identify the domain of axin necessary for GSK-3 beta binding, multiple Myc-tagged GID deletion constructs (shown diagrammatically in FIG. 3A) were individually expressed in Xenopus oocytes in which GSK-3 beta was also expressed. Tau protein was microinjected into the oocytes, and immunoblotting was performed using phosphorylation-state-specific tau antibodies. A parallel group of oocytes expressing GSK-3 beta and the Myc-tagged GID deletion constructs were lysed, and GID proteins were immunoprecipitated using a Myc-specific antibody. The presence or absence of GSK-3 beta in GID immunoprecipitates was detected using GSK-3 beta-specific antibodies. GID deletion constructs which included amino acid residues 380-404 of Xaxin (i.e. constructs GID-1, GID-2, GID-4, GID-5, and GID-6) bound GSK-3 beta and inhibited GSK-3 beta mediated tau phosphorylation, as indicated in FIG. 3A. […] However, changing leucine residue 392 in FIG. 3B to proline abolishes its activity.

Xenopus embryos = test: Dorsal axis duplication / dorsalization in Xenopus embryos after mRNA injection; assay type: in vivo; settings: construct expressed in embryos, injection side not stated
GSK-3 beta [4] = test: Co-immunoprecipitation of GSK-3 beta with Myc-tagged Xaxin constructs in Xenopus oocytes; assay type: binding; settings: Myc-tagged construct co-expressed with GSK-3 beta in Xenopus oocytes; anti-Myc IP, anti-GSK-3 beta blot
FL Xaxin = biological target: T1, FL Xaxin (Xenopus laevis, UniProt Q9YGY0); test: Yeast two hybrid assay, interaction with FL Xaxin; assay type: binding; settings: beta-galactosidase filter assay in S. cerevisiae
T1 construct: expressed in transfected cells; host or cells: Saccharomyces cerevisiae
Source text: FL Xaxin was cloned in frame with the GAL4 DNA binding domain (BD) in plasmid pAS2-1 (Clontech) to yield BD plasmid. Expression of BD plasmid yielded a Xaxin-GAL4 fusion protein. FL Xaxin, deltaDIX Xaxin, and a fragment (designated “AID”) encoding amino acid residues 489-777 of Xaxin were cloned in frame with the GAL4 transcriptional activation domain (AD) in the vector pACT2 to yield AD plasmids. Yeast were transformed with BD and AD plasmids using previously described protocols (Clontech, Palo Alto, Calif.). Transformed colonies were selected and assayed for beta-galactosidase activity in order to detect interacting proteins. In addition, three Xenopus axin partial length cDNAs (designated Y2H 2, Y2H 6, Y2H 7; all in plasmid pACT2) isolated from a previous yeast two hybrid screen (Hedgepeth et al., 1999, Mech. Develop. 80:147-151) were analyzed. Purification of GID
Using the yeast two hybrid assay, the ability of axin to bind with itself, with other members of the wnt pathway, or with the G(alpha)q subunit of heterotrimeric G-proteins, was investigated. […]
Saccharomyces cerevisiae cells were transformed with the bait vector and with one of the target vectors. Interaction was assessed using a filter assay to detect beta-galactosidase activity, as described (Fields et al., 1989, Nature 340:245-247; Harper et al., 1993, Cell 75:805-816). […]

T1 sequence (Q9YGY0 whole entry): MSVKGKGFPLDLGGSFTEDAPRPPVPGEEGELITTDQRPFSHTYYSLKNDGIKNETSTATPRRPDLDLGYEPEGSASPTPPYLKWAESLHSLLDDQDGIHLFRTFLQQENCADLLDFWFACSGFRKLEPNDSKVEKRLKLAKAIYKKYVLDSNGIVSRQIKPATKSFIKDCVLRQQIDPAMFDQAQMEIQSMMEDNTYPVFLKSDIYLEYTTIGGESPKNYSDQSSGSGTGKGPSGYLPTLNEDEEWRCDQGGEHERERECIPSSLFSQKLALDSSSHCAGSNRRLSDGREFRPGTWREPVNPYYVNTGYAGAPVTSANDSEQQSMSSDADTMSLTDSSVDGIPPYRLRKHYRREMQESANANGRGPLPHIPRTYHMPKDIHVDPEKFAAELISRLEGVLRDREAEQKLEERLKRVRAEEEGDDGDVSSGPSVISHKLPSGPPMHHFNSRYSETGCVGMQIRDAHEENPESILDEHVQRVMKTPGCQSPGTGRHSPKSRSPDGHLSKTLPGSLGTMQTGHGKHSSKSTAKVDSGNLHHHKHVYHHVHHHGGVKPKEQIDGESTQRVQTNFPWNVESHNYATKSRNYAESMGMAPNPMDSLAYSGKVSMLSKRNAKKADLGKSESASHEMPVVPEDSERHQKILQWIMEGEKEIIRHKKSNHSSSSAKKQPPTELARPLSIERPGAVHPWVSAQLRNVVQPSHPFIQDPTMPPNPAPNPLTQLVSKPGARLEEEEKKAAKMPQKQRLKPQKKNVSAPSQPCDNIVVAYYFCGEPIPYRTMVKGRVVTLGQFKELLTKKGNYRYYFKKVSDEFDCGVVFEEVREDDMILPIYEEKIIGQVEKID

Molecule | binding of GSK-3 beta (nickel agarose, immunoblot) (GSK-3 beta [1]) | GSK-3 beta mediated phosphorylation of the GS-2 peptide (GSK-3 beta [2]; 25 nanomolar GSK-3 beta, GID-2/his up to 200-fold molar excess) | phosphorylation of tau by GSK-3 beta in vitro (GSK-3 beta [2]; GID-2/his at a 200-fold molar excess) | accumulation of beta-catenin (beta-catenin) | GSK-3 beta-mediated tau phosphorylation (GSK-3 beta activity) (GSK-3 beta [3]) | effect on axial development / axis formation (Xenopus embryos) | binding with GSK-3 beta (co-immunoprecipitation) (GSK-3 beta [4]) | interaction with FL Xaxin (self-interaction) (FL Xaxin)
B1 | bound specifically | no significant effect | did not inhibit |  |  |  |  | 
B2 |  |  |  | not observed | no effect | no apparent effect | Neither the amino- nor carboxyl-terminal fragments of axin bound | 
B3 |  |  |  | not observed | no effect | no apparent effect | Neither the amino- nor carboxyl-terminal fragments of axin bound | 
B4 |  |  |  |  |  |  |  | sufficient to mediate axin self-interaction
